# The DeepSol protein solubility set
# Assay: soluble on expression in E. coli; label from the status in PepcDB or PDB records
row,Sequence,soluble on expression in E. coli
1,MSDETFMREAIALARANVEAGGRPFGAVLVRDGRVLARGVNQIHETHDPSAHAELQAIRQASQALGSPRLDGCVIYASGHPCPMCLAAMHLCGIQAAWFAYSNEDGEAFGLSTATLYAEMARPPQRQSLPLRALRPAGEEGLYRQWRQRQA,not soluble
2,MGHHHHHHSHGYRSVRERTSTSGTHRDREDSKFRRTRPLECQDALETAARAEGLSLDASMHSQLRILDEEHPKGKYHHGLSALKPIRTTSKHQHPVDNAGLFSCMTFSWLSSLARVAHKKGELSMEDVWSLSKHESSDVNCRRLERLWQEELNEVGPDAASLRRVVWIFCRTRLILSIVCLMITQLAGFSGPPTDLRKEGMNLQTLRLRSSNKHQRFPGLPRAPVYQKLLERMKH,soluble
3,MITDCCPGFGSVAKYIAVSMLEASFDVASMAKTSTKVFILEVMGRHAGWIAAAGGLASNEDHEVPIIILFPEVTFDQEKFLAKTDHYVKEYGYCTVVVSEGVKGTDGKFLSDQGLRDAFGHAQLGGVAPVIANIVKNGLGLEHHHHHH,soluble
4,MNDAVPAGNFVPPLILHSDHGGSAMSSSAHRGRILHFLGDPAKLGDKAWEYFEDGLLWIEHGHVRALDHATYLLPQLPADLPLEEHPQRLLLPGFVDCHVHYPQLGVIASYGTQLLDWLETHTFPAEQRFADAGYAAAQAELFLDELLRHGTTTALVFGTVHAVSAEAFFQAAQKRRLRMIAGKVLMDRNAPPALCDTAASGYAESRALIERWHGNGRLQYAVTPRFAPTSSPEQLAAAARLLDEYPGVYLHTHLSENLKEVAWVGELFPQAQDYLDVYHRAGLVGERSVFAHGIHLSERECRCLAHKNAALAHCPSSNLFIGSGLFDLGRAQQYGIRVGIGSDVGGGTSLSLLANLADAYKIQQLRGTSLDPFQALYLATLGGARALDLDGLVGNFLPGREADFVALDLAATPMIAQRMEHARGLADTLFVLNTLGDDRAVAETWVMGERRHVKG,not soluble
5,MESKVERYVENYVVTKNTMALLPVILSEKKIVTRVVEMNDSFFVFQKPLDIIERSCRKHGSSFLGRKEGTKELTHITHKAPIAISPADQLYFFPTYSYSRKECAWLSHFYIESNKELKDGNLIIRFINGFAVKLEISKTSFENQQNRTAKLRTEYEDRRKKQGNPCFKEVDKKEESTLRPAYESVYFVKEGEV,not soluble
6,MTKPAPTPLYNEFTFFLKKYFSYKVQKISLNAGFTCPNRDGTKGLGGCTYCNNQTFNPEYCKTEKSVTRQLEEGKQFFAHKYPDMKYLAYFQAYTNTYAELEGLKGKYEEALSVDGVVGLVIGTRPDCMPDPLLRYLEELNKHTFLLVEYGIETTRDVTLKRINRGHTYADTVETVNRTAACGILTGGHVILGLPGETHDEIIAQAAELSRLPLTTLKMHQLQLIRGTKMAREFECRPEDFHLFSVDEYIDLVIDYVEHLRPDLILERFVSQSPKELLIAPDWGLKNYEFTARVQKRMKERGAYQGKAYLV,not soluble
7,MGSDKIHHHHHHMTTLTFQSTTLSAIHQNNQIWLTVTEIGKALGYSDPFKSVKNIYDRHADEFTPQMTALIDMRTNGGIQKVRIFSLRGAHLIGMLSHTKVAKDFRRWVLDILDREAQQPKQLALPQPEKTYTVPLTEYRNCHLKTRVFLVHSTSYCPFLSNKKALTWRAWGWLGLFISLACICLDKIHRRE,not soluble
8,MAGSDPAAPAAPAAAAPDTVKILIAGGFGVGKTTMVGSVSEIAPLRTEEPLTAAGLDVDDLDGIAEKDATTVALDFGRITIGSELVLYLFGTPGQQRFWFMWNDLAIGALGAVVLIDVRRPESSFAAVDFFERRGIPFVIGVNGFHGLHPYTPEEIREALALPERAQVLLCDARERESCRDVLIALIDQLIAARLEHHHHHH,not soluble
9,GSMLGMIRNSLFGSVETWPWQVLSTGGKEDVSYEERACEGGKFATVEVTDKPVDEALREAMPKIMKYVGGTNDKGVGMGMTVPVSFAVFPNEDGSLQKKLKVWFRIPNQFQGSPPAPSDESVKIEEREGITVYSTQFGGYAKEADYVAHATQLRTTLEGTPATYQGDVYYCAGYDPPMKPYGRRNEVWLVKA,soluble
10,MWSEKHKSGKVNFVERYKHPYTGKWCRASVLMEKDTPRIRKEAQKYLDEKISEILTSLTTTDAYLLDVMNEWWEHHQKSLKSTSVRSLDFRIRELRNLIDPEVMIAKITTKYLQSIIDKIPGSYDKRKRARQLLKQTFDYAIALEYVSINPVISTQLAKPVKTIKDFEDVAQKFLEKDELKRLLDEMYRRKGSIKMAYLAEFMSLNGCRIGEALAIQPDNIKNDIIEIHGTLDYTSNGYRNAIKTTPKTNSSWRETLITKREKEIIQDILKINALEKNTNPNYKDMGYIFISRNGVPIQDNALNTSIRAANKRLEKPIQKELTSHIFRHTLVSRLAENKVPLKTIMDRVGHADSKTTQQIYTHVTKSMKNEVVDILNRL,not soluble
11,MTQKEISIIHPRPSSIVAALYTLRDLNVDVAILHGPPGCSFKHARLLEEDGIHVVTTGLDENGFVFGGHDKLVQVINKSIELFNPKILGVVGTCASMIIGEEMHEAVLEANPDIPVIEVEVHAGYHNNTKGVIFALESALDAGIIDHKEFERQEYLEHHHHHH,not soluble
12,GSDDINQKVAEQLAQKAQSSSLGYDIVESLTVEVGPRLAGSEQDKVAVDWAIAKLQSLGFDRVYKEPVTVPVWRRGIAKASILSPFPQPLVVTALGGSIATPAQGLSATIVRFDTLQDLQNAEAGSLNDKIAFIDAKTERHRDGKGYGQTASGRSRGAVAAAEKGAVGIIIRSIGTDHDRMAHTGMMRYEEGVTAIPAAAISNPDADLINAMLKRDKEVVISLELGSERRGETTSYNVIAEVKGSTKADEIVLIGAHLDSWDEGTGAIDDGAGVAIVTAAAKHILDLPQKPERTIRVVLYAAEELGLLGGKTYAKEHEAELEKHYIAAESDFGAGPIYQIDWRVADTAHSPVINAMKVAEPLGVAAGNNKASGGPDVSMLPALGVPVASLRQDGSDYFDYHHTPNDTLDKINPEALAQNVAVYAQFAWVMANSKVELRPLPPKE,soluble
13,MLEVIATCLEDVKRIESAGGKRIELISSYTEGGLTPSYAFIKKAVEVVSIPIHVMIRPHAKSFTYTEEEIEMMKEDIIVAQKLGAAGVVLGVLNERNEVDEEKLADLLSVVDGINVTYHRAIDDIKNPVEAMSTLKKFHKVTHVLTSGGQGNIVENIPVLTEMQKVSEGQIQLVAGAGVTKENIKRLLDETGITQAHVGTAVREGKSCFSEIDPNLVQELVEIIKLEHHHHHH,soluble
14,SSWKPRSQQPDAPLGTGANRDLELPWLEQQGPASHHRRQLGPQGPPHLVADPSKKQGPWLEEEEEAYGWMDFGRRSAEDEN,soluble
15,SGLRDWLRTVCCCCGCECLEERALPEKEPLVSDNNPYSSFGATLVRDDEKNLWSMPHDVSHTEADDDRTLYNLIVIRNQQAKDSEEWQKLNYDIHTLRQVRREVRNRWKCILEDLGFQKEADSLLSVTKLSTISDSKNTRKAREMLLKLAEETNIFPTSWELSERYLFVVDRLIALDAAEEFFKLARRTYPKKPGVPCLADGQKELHYLPFPSP,soluble
16,MGSDKIHHHHHHMKSWVENVTIKKYEDRSGLTGLKQGPLVWTEVFLREVNRQSNTGILHFWPMDQTVILGMMDSQVAQLDKGLASIGQAGYSPIIRSLGGLAVVADDGILNVTLIFPNPSGHKVDLRESYQVMVDLIAQALSDFPFEVVSGEVATSYCPGTYDLSIKGRKFAGLAQRIYQEAIAISAYISVSGNQVKRGQVVADFYAASFAPQEVSDRFPQVNPNSMANLSDLVAQDLTMEDMKIRIEHVLIENGAFLTTFYPSSDNMADFMALGKTIKQSMEKYGI,not soluble
17,MQFSYVNPTMIHFGQGQIASIRRDIPKDHKVLVLYGGGSIKRNGVYDQVVEALSEHQWVEFSGVEPNPTKETLDKAVHIVKNQHIDFILAVGGGSVIDGSKYVAAAAFYEGDGWDILTGQHTVKQATPIGAILTLPATGSESNTGAVITKAETQDKLAFLSPAVQPRFAVLDPDVMKSLPERQLVNGLVDAWVHVCEQYLTLPTQAMVQEGYAEVLLRNLLALGADFVNRDNDAWRANLMWTANQALNGLIGTGVPQDWATHMIGHELTALWHVDHARSLAIVQPWLLRNQLKHKKAKLEQMGKNVFGLPQSDDLAEKTIAAIEAFYHQLNVATQFGEHGMAKEAAVDAVLQQLTAHGMHKLGEQGTIDLQESRKILENALY,not soluble
